Among the data in publication PMC11437284 are Kd values, retold here.

Substitutions are numbered along the chain they refer to. In names and notes the source's numbering stands.

Experiment in all cases: SPR
(In general: In SPR one partner is held on a chip, and binding of the other changes the refractive index at the surface.)

For assay [1], the target named is D1 domain of FcμR (FcμR-D1) (human) (UniProt O60667).
Assay [2] concerns the target cat Fcμ–J complex (cat).
For assay [3], the target named is human Fcμ–J–CD5L complex (human) (UniProt P01871).
Assay [4] deals with human Fcμ–J complex (pentameric IgM core: IgM-Fc pentamer and the J chain) (human) (UniProt P01871).

Broadly, the Kd is the equilibrium constant for the complex coming apart. Read a high Kd as weaker binding.

As for “human Fcμ–J–CD5L complex (from UniProt P01871 106-433; P01591 23-159; O43866 20-347)”, the Kd in assay [1] stood at 0.4 nM.
In assay [2], “cat CD5L (3-SRCR isoform) (from UniProt A0A1E1GEY0 20-355) (natural protein)” displayed a Kd of 14.4 nM.

B1: D1 domain of FcμR (FcμR-D1) (domain or fragment)
chain: RILPEVKVEGELGGSVTIKCPLPEMHVRIYLCREMAGSGTCGTVVSTTNFIKAEYKGRVTLKQYPRKNLFLVEVTQLTESDSGVYACGAGMNTDRGKTQKVTLNVHS
The molecule B1 had a Kd in assay [3] of 8.8 nM.

B2: human CD5L (CD5 antigen-like), wild type (natural protein)
chain: SPSGVRLVGGLHRCEGRVEVEQKGQWGTVCDDGWDIKDVAVLCRELGCGAASGTPSGILYEPPAEKEQKVLIQSVSCTGTEDTLAQCEQEEVYDCSHDEDAGASCENPESSFSPVPEGVRLADGPGHCKGRVEVKHQNQWYTVCQTGWSLRAAKVVCRQLGCGRAVLTQKRCNKHAYGRKPIWLSQMSCSGREATLQDCPSGPWGKNTCNHDEDTWVECEDPFDLRLVGGDNLCSGRLEVLHKGVWGSVCDDNWGEKEDQVVCKQLGCGKSLSPSFRDRKCYGPGVGRIWLDNVRCSGEEQSLEQCQHRFWGFHDCTHQEDVAVICSG
As for B2, the Kd in assay [4] was 18.1 nM.

B3: human CD5L C191S (natural protein)
chain: B2 chain with C172S
In assay [4], B3 showed a Kd of 13.2 nM.
